Test results reported in publication PMC5906480, “Tau Antibody Structure Reveals a Molecular Switch Defining a Pathological Conformation of the Tau Protein” (Scientific Reports, 2018).

Experiments:
[1] = target: FITC-conjugated tau peptide pS396/pS404; test: Fluorescence polarization direct binding, pS396/pS404 peptide; settings: Fab C5.2 675 nM to 0.08 nM; FITC-peptide 300 nM; 25 °C; 50 mM Tris, 100 mM NaCl, 0.1% pluronic F-127; ex 485/em 535 nm; triplicate; nonlinear regression
Protocol: (§1) FITC-labeled peptides used in fluorescence polarization experiments were synthesized by Biomatik (Cambridge, ON, Canada). Fab C5.2 affinity was determined using a fluorescence polarization-based direct binding assay with fluorescein isothiocyanate (FITC)-conjugated peptides (Table 1). The FITC-peptide concentration was kept constant at 300 nM while Fab C5.2 was serially diluted from 675 nM to 0.08 nM. Data was collected at 25 °C using excitation and emission wavelengths of 485 nm and 535 nm, respectively. Each experiment was done in a single 96-well plate and calculated in triplicate (buffer: 50 mM Tris, 100 mM NaCl, 0.1% pluronic F-127). The experiments were performed with a DTX 880 Multimode Detector (Beckman Coulter, Jersey City, NJ). Fluorescence data was reduced using multimode detection software and KD values were calculated in GraphPad Prism 7.0 using a nonlinear regression model.
(§2) To accurately measure the C5.2 binding affinity, we performed fluorescence polarization experiments to determine dissociation constants (KD), using the Fab C5.2 and four differentially phosphorylated FITC-conjugated peptides (Table 1). The peptide concentration was kept constant while that of Fab C5.2 was serially diluted from 675 nM to 0.08 nM (Fig. 1d). […] In comparison with a […] IgG molecule, each Fab fragment contains a single binding site so the KD was calculated using a nonlinear model.

[2] = target: FITC-conjugated tau peptide pS396; test: Fluorescence polarization direct binding, pS396 peptide; settings: Fab C5.2 675 nM to 0.08 nM; FITC-peptide 300 nM; 25 °C; 50 mM Tris, 100 mM NaCl, 0.1% pluronic F-127; ex 485/em 535 nm; triplicate; nonlinear regression
Protocol: as §1, §2

[3] = tested on: FITC-conjugated tau peptide pS404; test: Fluorescence polarization direct binding, pS404 peptide; settings: Fab C5.2 675 nM to 0.08 nM; FITC-peptide 300 nM; 25 °C; fluorescence dip around 10 nM Fab due to protein aggregation and fluorophore quenching
Protocol: as §1, §2

[4] = tested on: FITC-conjugated non-phosphorylated tau peptide; test: Fluorescence polarization direct binding, non-phosphorylated peptide; settings: Fab C5.2 675 nM to 0.08 nM; FITC-peptide 300 nM; 25 °C; fluorescence dip around 10 nM Fab due to protein aggregation and fluorophore quenching
Protocol: as §1, §2

B1: Fab C5.2: Fab fragment of C5.2 prepared by papain digestion (antibody, V domains shown)
VH: QVQLQQSDAELVKPGASVKISCKASGYTFTDRTIHWVKQRPEQGLEWIGYIYPGDDSTKYNDMFKAKATLTADKSSNTAYMQLNSLTSDDSAVYFCARRGTMDYWGQGTSVTVSS
VL: DVQMIQSPSSLSASLGDIVTMTCQASQDTSINLNWFQQKPGKAPKLLIYGASNLEDGVPSRFSGSRYGTDFTLTISSLEDEDMATYFCLQHTYLPFTFGSGTKLEIK
Kd [1]: 15.4 nM | Kd [2]: 14.9 nM | Recognition of peptide pS404 [3]: does not recognize | Recognition of the non-phosphorylated peptide [4]: does not recognize
